Measurements: article PMC3278561 (Plant Cell Reports, 2011)

Biological target: the molecule itself
Experiment: transmission electron microscopy

B1: plant-derived Norwalk virus capsid protein (NVCP), assembled as virus-like particles (VLP) (natural protein)
chain: MMMASKDATSSVDGASGAGQLVPEVNASDPLAMDPVAGSSTAVATAGQVNPIDPWIINNFVQAPQGEFTISPNNTPGDVLFDLSLGPHLNPFLLHLSQMYNGWVGNMRVRIMLAGNAFTAGKIIVSCIPPGFGSHNLTIAQATLFPHVIADVRTLDPIEVPLEDVRNVLFHNNDRNQQTMRLVCMLYTPLRTGGGTGDSFVVAGRVMTCPSPDFNFLFLVPPTVEQKTRPFTLPNLPLSSLSNSRAPLPISSMGISPDNVQSVQFQNGRCTLDGRLVGTTPVSLSHVAKIRGTSNGTVINLTELDGTPFHPFEGPAPIGFPDLGGCDWHINMTQFGHSSQTQYDVDTTPDTFVPHLGSIQANGIGSGNYVGVLSWISPPSHPSGSQVDLWKIPNYGSSITEATHLAPSVYPPGFGEVLVFFMSKMPGPGAYNLPCLLPQEYISHLASEQAPTVGEAALLHYVDPDTGRNLGEFKAYPDGFLTCVPNGASSGPQQLPINGVFVFVSWVSRFYQLKPVGTASSARGRLGLRR
binding result: binds
